Test [1] has as its target recombinant N-type (Cav2.2) VGCC α1B-b/α2δ1/β3 expressed in Xenopus oocytes (rat; rabbit) (UniProt Q02294). The test is described as follows: cell-based or functional assay.
The target of test [2] is recombinant N-type (Cav2.2) VGCC α1B-b/α2δ1/β3 expressed in Xenopus oocytes (rat; rabbit), Q02294. Briefly: cell-based or functional assay.

Three molecules from patent US20120329717A1 can be followed below.

recombinant N-type (Cav2.2) VGCC α1B-b/α2δ1/β3 expressed in Xenopus oocytes (rat; rabbit), sequence (P13806 27-1106, stated change not applied, chain 2 of 2): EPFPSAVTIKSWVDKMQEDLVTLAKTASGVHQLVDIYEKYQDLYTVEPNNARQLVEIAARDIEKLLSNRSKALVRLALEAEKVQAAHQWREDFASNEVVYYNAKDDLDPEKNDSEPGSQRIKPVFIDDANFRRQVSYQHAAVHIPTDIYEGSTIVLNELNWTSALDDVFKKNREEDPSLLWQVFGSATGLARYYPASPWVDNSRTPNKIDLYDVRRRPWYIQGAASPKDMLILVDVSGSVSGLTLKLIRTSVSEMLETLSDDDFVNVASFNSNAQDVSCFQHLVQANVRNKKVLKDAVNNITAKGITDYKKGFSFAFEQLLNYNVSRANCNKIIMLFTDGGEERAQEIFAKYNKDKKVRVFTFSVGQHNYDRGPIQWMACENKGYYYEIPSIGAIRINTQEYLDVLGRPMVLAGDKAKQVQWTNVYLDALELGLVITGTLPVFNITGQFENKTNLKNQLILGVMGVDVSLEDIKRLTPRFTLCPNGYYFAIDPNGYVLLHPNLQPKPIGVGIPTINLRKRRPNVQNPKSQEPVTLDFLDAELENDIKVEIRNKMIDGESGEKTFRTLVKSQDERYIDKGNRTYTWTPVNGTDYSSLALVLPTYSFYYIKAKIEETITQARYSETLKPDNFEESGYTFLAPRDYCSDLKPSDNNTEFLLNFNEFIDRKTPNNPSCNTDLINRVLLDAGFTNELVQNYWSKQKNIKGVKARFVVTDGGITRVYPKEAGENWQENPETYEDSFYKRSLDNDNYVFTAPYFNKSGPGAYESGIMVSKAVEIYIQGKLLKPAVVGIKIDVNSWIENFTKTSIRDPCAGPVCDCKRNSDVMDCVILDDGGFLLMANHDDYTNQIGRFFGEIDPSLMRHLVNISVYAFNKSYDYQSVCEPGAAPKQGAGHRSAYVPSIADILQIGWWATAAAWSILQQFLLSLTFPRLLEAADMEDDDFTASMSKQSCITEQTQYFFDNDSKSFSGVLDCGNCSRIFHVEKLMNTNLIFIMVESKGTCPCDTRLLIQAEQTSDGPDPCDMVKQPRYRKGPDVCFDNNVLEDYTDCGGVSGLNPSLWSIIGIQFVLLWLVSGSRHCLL
recombinant N-type (Cav2.2) VGCC α1B-b/α2δ1/β3 expressed in Xenopus oocytes (rat; rabbit), sequence (P54287 whole entry, stated change not applied, chain 3 of 2, further chain): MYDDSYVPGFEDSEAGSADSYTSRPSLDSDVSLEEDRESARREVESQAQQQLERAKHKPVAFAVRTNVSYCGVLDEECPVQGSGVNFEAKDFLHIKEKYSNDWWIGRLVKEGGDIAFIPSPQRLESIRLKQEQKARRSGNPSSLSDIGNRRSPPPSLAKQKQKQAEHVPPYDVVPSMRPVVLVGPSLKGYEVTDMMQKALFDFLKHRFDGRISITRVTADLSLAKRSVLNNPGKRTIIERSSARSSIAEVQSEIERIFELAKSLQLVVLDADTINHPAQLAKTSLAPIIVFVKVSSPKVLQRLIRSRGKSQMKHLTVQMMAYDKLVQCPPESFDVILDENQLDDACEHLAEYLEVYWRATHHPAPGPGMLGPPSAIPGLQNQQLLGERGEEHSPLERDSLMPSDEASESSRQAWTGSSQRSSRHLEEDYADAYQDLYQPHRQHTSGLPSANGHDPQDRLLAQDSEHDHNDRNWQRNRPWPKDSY
recombinant N-type (Cav2.2) VGCC α1B-b/α2δ1/β3 expressed in Xenopus oocytes (rat; rabbit), Q02294, sequence (P13806 27-1106, stated change not applied, chain 2 of 2): as the sequence (P13806 27-1106, stated change not applied, chain 2 of 2) above
recombinant N-type (Cav2.2) VGCC α1B-b/α2δ1/β3 expressed in Xenopus oocytes (rat; rabbit), Q02294, sequence (P54287 whole entry, stated change not applied, chain 3 of 2, further chain): as the sequence (P54287 whole entry, stated change not applied, chain 3 of 2, further chain) above

As to “ω-conotoxin CVIB (from UniProt P58918 1-25) (peptide)”, the IC50 of inhibition of normalized peak IBa, Xenopus oocytes in test [1] stood at 12 nM.

On to ω-conotoxin CVIE (peptide), for which, in test [1], the IC50 of inhibition of normalized peak IBa, Xenopus oocytes was 2.6 nM; the time constant of block (τon) at HP -80 mV worked out at 31.5 s; the time constant of block (τon) at HP -125 mV was 38.5 s.

CKGKGASCRRTSYDCCTGSCRSGRC (modifications not checked) [ω-conotoxin CVIF]: the IC50 of inhibition of normalized peak IBa, Xenopus oocytes in test [2] was 19.9 nM.
